Patent US20240050583A1 (HARBOUR BIOMED SHANGHAI, published 2024)
Changes are numbered by the printed parent chain.

T1: human CTLA4 (human, UniProt P16410 36-223)
T1 construct: whole, on cells; HEK293T cell strain HEK293/hCTLA4 highly expressing human CTLA4 (constructed by Harbour BioMed); also called hCTLA4; CD152
T1 sequence (looked up): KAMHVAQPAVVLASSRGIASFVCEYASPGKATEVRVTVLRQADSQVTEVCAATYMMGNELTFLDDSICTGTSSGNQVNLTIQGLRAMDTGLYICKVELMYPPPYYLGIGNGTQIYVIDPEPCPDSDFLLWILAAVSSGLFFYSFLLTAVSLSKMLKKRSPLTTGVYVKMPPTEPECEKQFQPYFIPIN

T2: human BCMA (human, UniProt Q02223 1-184)
T2 construct: whole, on cells; also called hBCMA; tumor necrosis factor receptor superfamily member 17
T2 sequence (looked up): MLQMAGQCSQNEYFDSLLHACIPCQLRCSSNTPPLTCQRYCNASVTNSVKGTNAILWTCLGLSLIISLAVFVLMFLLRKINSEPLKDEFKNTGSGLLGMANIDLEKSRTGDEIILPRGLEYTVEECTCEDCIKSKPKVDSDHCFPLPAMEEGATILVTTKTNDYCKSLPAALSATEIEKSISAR

B1: HCAb PR000020 (antibody, human IgG1, V domains shown)
VH: EVQLVETGGGLIQPGGSLRLSCAASGLNVSRHYLSWVRQAPGKGLEWVAVIYSGGGIEYVDSVKGRFTISRDNANNTLYLQMRSLRTEDSAVYYCARAIPRPHGSDIWGQGTMVTVSS
notes: Fully human heavy-chain-only antibody (VH, human IgG1 hinge, CH2, CH3), dimer of two heavy chains, no light chain; also called CL24; anti-CTLA4 HCAb antibody PR000020
B2: PR000020-ADC (antibody, human IgG1, V domains shown)
VH: B1 VH
modifications: mc-vc-PAB-MMAE coupled to C124 (Cys-220 according to Eu numbering)
notes: Purified coupling product of HCAb PR000020 with mc-vc-PAB-MMAE, main component DAR=2; also called coupling product PR000020-ADC
B3: PR005744-ADC (bispecific antibody, human IgG1, kappa)
chain 1: QVQLVESGGGVVQPGRSLRLSCAATGFTFSSYGMYWVRQAPGKGLEWVAAIWNDGSNNYYADSVKGRFTISRDDSKNTLNLQMNSLRAEDTAMYYCARDRLPMASLRYFDWLGVMDAWGQGTSVTVSSASTKGPSVFPLAPSSKSTSGGTAALGCLVKDYFPEPVTVSWNSGALTSGVHTFPAVLQSSGLYSLSSVVTVPSSSLGTQTYICNVNHKPSNTKVDKKVEPKSC
chain 2: not shown
modifications: mc-vc-PAB-MMAE coupled to Cys-220 (Eu numbering) of the linker peptide (99.07% of the site coupled)
notes: Coupling product of PR005744 with mc-vc-PAB-MMAE; also called coupling product PR005744-ADC
B4: HCAb PR004433 (antibody, human IgG1, V domains shown)
VH: EVQLVETGGGLIQPGGSLRLSCAASGFTVSDSYMTWVRQAPGKGLEWVSVIFSGGRTYYSDSVKGRFTISRDNAKNTLYLQMNSLRAEDTALYYCARRNYDDTRGTDVFDIWGQGTMVTVSS
notes: also called PR001046_R2_4G10; anti-BCMA HCAb antibody PR004433
B5: PR004433-PROTAC (antibody, human IgG1, V domains shown)
VH: B4 VH
modifications: BRD4 protein degrading agent (PROTAC GNE-987 with a disulfide-containing linker) coupled by a disulfide bond to cysteine, Cys-220 site (Eu numbering) as the filing aims
notes: Coupling product without HIC purification; DAR=2 component 66.4%, naked antibody 28.4%; also called coupling product PR004433-PROTAC
B6: PR006036 (antibody, V domains shown)
VH: B4 VH
notes: also called PR004433 variant molecule; Hinge4_15
B7: PR006314 (antibody, V domains shown)
VH: B4 VH
notes: also called PR004433 variant molecule; Hinge8_18
B8: PR006319 (antibody, V domains shown)
VH: B4 VH
notes: also called PR004433 variant molecule; Hinge10_3
B9: PR006316 (antibody, V domains shown)
VH: B4 VH
notes: also called PR004433 variant molecule; Hinge9_5
B10: PR006042 (antibody, V domains shown)
VH: B4 VH
notes: also called PR004433 variant molecule; Hinge6_18
B11: PR006468-ADC (antibody, V domains shown)
VH: B4 VH
modifications: mc-vc-PAB-MMAE coupled to Cys1 (first cysteine) of the mouse IgG2c hinge region (90.8% of the site coupled)
notes: Purified coupling product of PR006468 with mc-vc-PAB-MMAE, DAR=2 component 95.5%; also called coupling product PR006468-ADC
B12: HCAb PR006468 (antibody, V domains shown)
VH: B4 VH
B13: PR006310 (antibody, V domains shown)
VH: B4 VH
notes: also called PR004433 variant molecule; Hinge7_2
B14: PR006031 (antibody, V domains shown)
VH: B4 VH
notes: also called PR004433 variant molecule; Hinge3_5
B15: PR006317 (antibody, V domains shown)
VH: B4 VH
notes: also called PR004433 variant molecule; Hinge9_7
B16: PR006038 (antibody, V domains shown)
VH: B4 VH
notes: also called PR004433 variant molecule; Hinge5_12
B17: PR006034 (antibody, V domains shown)
VH: B4 VH
notes: also called PR004433 variant molecule; Hinge4_1
B18: PR006035 (antibody, V domains shown)
VH: B4 VH
notes: also called PR004433 variant molecule; Hinge4_6
B19: PR006033 (antibody, V domains shown)
VH: B4 VH
notes: also called PR004433 variant molecule; Hinge3_18
B20: PR006039 (antibody, V domains shown)
VH: B4 VH
notes: also called PR004433 variant molecule; Hinge5_13
B21: PR006318 (antibody, V domains shown)
VH: B4 VH
notes: also called PR004433 variant molecule; Hinge9_14
B22: PR006313 (antibody, V domains shown)
VH: B4 VH
notes: also called PR004433 variant molecule; Hinge8_8
B23: PR006037 (antibody, V domains shown)
VH: B4 VH
notes: also called PR004433 variant molecule; Hinge5_2
B24: PR006040 (antibody, V domains shown)
VH: B4 VH
notes: also called PR004433 variant molecule; Hinge6_4
B25: PR006320 (antibody, V domains shown)
VH: B4 VH
notes: also called PR004433 variant molecule; Hinge10_5
B26: PR006041 (antibody, V domains shown)
VH: B4 VH
notes: also called PR004433 variant molecule; Hinge6_15
B27: PR006032 (antibody, V domains shown)
VH: B4 VH
notes: also called PR004433 variant molecule; Hinge3_6
B28: PR006312 (antibody, V domains shown)
VH: B4 VH
notes: also called PR004433 variant molecule; Hinge7_19
B29: PR006315 (antibody, V domains shown)
VH: B4 VH
notes: also called PR004433 variant molecule; Hinge8_20
B30: PR006321 (antibody, V domains shown)
VH: B4 VH
notes: also called PR004433 variant molecule; Hinge10_7
B31: PR001046-ADC (antibody, human IgG1, V domains shown)
VH: B4 VH with S32N, R56N, S60A
modifications: mc-vc-PAB-MMAE coupled mainly to the cysteine at site 127 (Cys-220 according to Eu numbering)
notes: Purified coupling product of HCAb PR001046 with mc-vc-PAB-MMAE, main component DAR=2; also called coupling product PR001046-ADC
B32: HCAb PR001046 (antibody, human IgG1, V domains shown)
VH: B4 VH with S32N, R56N, S60A
notes: Fully human heavy-chain-only antibody with human IgG1 hinge and Fc; also called 1005P63B7; anti-BCMA HCAb antibody PR001046

biological target: T1, human CTLA4; assay: flow cytometry (FACS) on HEK293/hCTLA4 cells
Protocol: The binding ability of the antibody molecules to an HEK293T cell strain HEK293/hCTLA4 (constructed by Harbour BioMed) highly expressing human CTLA4 and other cells was determined by flow cytometry FACS. Specifically, the HEK293/hCTLA4 cells were digested and resuspended in a DMEM medium, with the cell density adjusted to 1×10⁶ cells/mL. HEK293 cells not expressing CTLA4 were used as a negative control. Thereafter, the cells were seeded in a 96-well V-bottom plate (Corning, #3894) at 100 μL/well and centrifuged at 4° C. for 5 min, and the supernatant was discarded. Then, the serially diluted antibody molecules were added to the 96-well plate at 100 μL/well, and the mixtures were well mixed. […]
Then, the cells in each well were rinsed twice with 100 μL of pre-cooled FACS buffer (PBS buffer containing 0.5% BSA) and centrifuged at 500 g at 4° C. for 5 min, and then the supernatant was discarded. […] Fluorescence signal values were read using a BD FACS CANTOII flow cytometer, and the data were processed and analyzed using FlowJo v10 (FlowJo, LLC) software. The data were processed and analyzed by plotting using GraphPad Prism 8 software, and binding curves of the antibodies to target cells, EC₅₀ values and other parameters were obtained through four-parameter nonlinear fitting.

Row | binding result | Binder
1 | binds | B1
2 | binds | B2

biological target: T2, human BCMA; assay: flow cytometry (FACS) on NCI-H929 cells

Row | binding result | Binder
3 | binds | B3
4 | binds | B4
5 | binds | B5
6 | binds | B6
7 | binds | B7
8 | binds | B8
9 | binds | B9
10 | binds | B10
11 | binds | B11
12 | binds | B12
13 | binds | B13
14 | binds | B14
15 | binds | B15
16 | binds | B16
17 | binds | B17
18 | binds | B18
19 | binds | B19
20 | binds | B20
21 | binds | B21
22 | binds | B22
23 | binds | B23
24 | binds | B24
25 | binds | B25
26 | binds | B26
27 | binds | B27
28 | binds | B28
29 | binds | B29
30 | binds | B30

biological target: T2, human BCMA; assay: flow cytometry (FACS) on HEK293T-hBCMA cells

Row | binding result | Binder
31 | binds | B31
32 | binds | B32
